T1: Recombinant human FAP (fibroblast activation protein) (human, UniProt Q12884 26-760)
T1 construct: Bought soluble recombinant protein; Chemically biotinylated for the HTRF screen; also called hFAP; biotinylated human FAP
T1 sequence (looked up): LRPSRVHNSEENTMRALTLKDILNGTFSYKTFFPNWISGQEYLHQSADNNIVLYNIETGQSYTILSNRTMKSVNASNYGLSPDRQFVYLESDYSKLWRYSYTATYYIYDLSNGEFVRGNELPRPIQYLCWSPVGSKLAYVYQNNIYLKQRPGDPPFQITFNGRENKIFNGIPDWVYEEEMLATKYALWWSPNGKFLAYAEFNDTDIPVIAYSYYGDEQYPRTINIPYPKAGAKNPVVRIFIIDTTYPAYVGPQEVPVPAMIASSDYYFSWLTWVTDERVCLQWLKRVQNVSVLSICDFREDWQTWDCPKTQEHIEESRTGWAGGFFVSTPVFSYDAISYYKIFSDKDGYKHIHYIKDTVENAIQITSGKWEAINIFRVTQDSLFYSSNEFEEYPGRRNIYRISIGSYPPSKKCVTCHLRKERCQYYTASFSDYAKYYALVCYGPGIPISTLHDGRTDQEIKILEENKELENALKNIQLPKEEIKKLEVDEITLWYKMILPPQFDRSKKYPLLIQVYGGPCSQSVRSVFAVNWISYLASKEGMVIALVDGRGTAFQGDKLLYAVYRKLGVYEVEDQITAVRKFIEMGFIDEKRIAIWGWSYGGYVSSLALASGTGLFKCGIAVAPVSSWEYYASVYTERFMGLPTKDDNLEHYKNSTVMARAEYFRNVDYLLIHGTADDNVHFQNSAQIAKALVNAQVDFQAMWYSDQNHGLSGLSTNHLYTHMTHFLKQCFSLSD

T2: Human FAP expressed on the cell surface (WI38, CHO-FAP1.9, U87MG cells) (human, UniProt Q12884 1-760)
T2 construct: whole, on cells; Endogenous on WI38 and U87MG cells; from a human FAP cDNA (OriGene) in CHO-FAP1.9 cells; also called hFAP; FAP+ cells
T2 sequence (looked up): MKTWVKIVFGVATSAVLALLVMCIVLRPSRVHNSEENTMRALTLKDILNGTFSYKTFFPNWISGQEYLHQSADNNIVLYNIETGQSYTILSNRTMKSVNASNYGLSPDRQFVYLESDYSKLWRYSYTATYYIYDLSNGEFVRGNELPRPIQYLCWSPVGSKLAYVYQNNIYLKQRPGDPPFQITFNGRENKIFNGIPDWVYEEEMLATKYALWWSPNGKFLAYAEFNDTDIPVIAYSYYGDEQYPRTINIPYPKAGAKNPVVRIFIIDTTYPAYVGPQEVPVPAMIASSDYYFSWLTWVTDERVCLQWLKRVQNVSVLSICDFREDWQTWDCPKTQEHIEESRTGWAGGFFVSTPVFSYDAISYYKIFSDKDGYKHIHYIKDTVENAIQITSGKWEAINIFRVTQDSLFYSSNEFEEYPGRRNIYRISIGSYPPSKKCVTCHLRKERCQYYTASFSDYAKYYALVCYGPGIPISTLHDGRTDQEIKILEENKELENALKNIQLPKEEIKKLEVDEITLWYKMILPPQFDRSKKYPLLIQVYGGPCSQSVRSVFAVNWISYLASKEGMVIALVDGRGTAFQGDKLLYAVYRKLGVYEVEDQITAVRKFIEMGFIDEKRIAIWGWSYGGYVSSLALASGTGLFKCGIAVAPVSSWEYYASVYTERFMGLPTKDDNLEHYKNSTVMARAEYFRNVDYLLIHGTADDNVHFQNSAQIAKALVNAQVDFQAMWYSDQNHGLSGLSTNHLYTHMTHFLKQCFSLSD

B1: DARPin® protein #19 (designed binder)
chain: MRGSHHHHHHGSYPYDVPDYAGSDLGEKLLVAALYGQDDEVRILLAAGADVNAKDQWGLTPLHKAALQGHLEIVEVLLKAGADVNAKDERGHTPLHWAARFGHLEIVEVLLKAGADVNAQDQKGYTPADLAALWGHEDIAEVLQKLN
B2: DARPin® protein #9 (designed binder)
chain: MRGSHHHHHHGSYPYDVPDYAGSDLGKKLLEAARAGQDDEVRILMANGADVNAFDTTGRTPLHLAALWGHLEIVEVLLKHGADVNASDWFSITPLHLAAFMGHLEIVEVLLNHGADVNAQDKFGKTAFDISIDHGNEDLAEILQKLN
B3: DARPin® protein #30 (designed binder)
chain: MRGSHHHHHHGSYPYDVPDYAGSDMGKKLLEAARAGQDDEVRELLKAGADVNAKDEWGWTPLHVAAERGHLEIVEVLLKAGADVNAKDKHGVTPLHLAAWRGHLEIVEVLLKAGADVNAKDIQGLTPLHIAAHQGHLEIVEVLLKAGADVNAQDKSGKTPADLAADAGHEDIAEVLQKLN
B4: DARPin® protein #4 (designed binder)
chain: MRGSHHHHHHGSYPYDVPDYAGSDLGHKLLEAATQGQDDEVRILLAAGADVNAKDEHGKTPLHLAAKKGHLEIVEVLLKAGADVNAKDDWGVTPLHLAAYWGHLEIVEVLLKAGADVNAQDNDGYTPADLAATFGHEDIAEVLQKLN
B5: DARPin® protein #33 (designed binder)
chain: MRGSHHHHHHGSYPYDVPDYAGSDLGKKLLEAARAGQDDEVRELLKAGADVNAKDEWGKTPLHLAAIRGHLEIVEVLLKAGADVNAKDTHGITPLHLAAFVGHLEIVEVLLKAGADVNAKDYLGRTPLHIAAAKGHLEIVEVLLKAGADVNAQDKSGKTPADLAADAGHEDIVEVLQKLN
B6: DARPin® protein #18 (designed binder)
chain: MRGSHHHHHHGSYPYDVPDYAGSDLGKKLLEAARAGQDDEVRILLAAGADVNAKDVLGWTPLHLAAFEGHLEIVEVLLKAGADVNAKDKKGWTPLQLAARTGHLEIVEVLLKAGADVNAKDHIGATPLHLAAWQGHPEIVEVLLKAGADVNAQDKSGKTPADLAADAGHEDIAEVLQKLN
B7: DARPin® protein #26 (designed binder)
chain: MRGSHHHHHHGSYPYDVPDYAGSDLGKKLLEAARAGQDDEVRELLKAGADVNAKDEVGRTPLHLAAQIGHLEIVEVLLKAGADVNAKNRWGVTPLHVAAWVGHLEIVEVLLKAGADVNAKDQQGATPLHLAAIRGHLEIVEVLLKAGADVNAQDKSGKTPADLAADAGHEDIAEVLQKLN

Experiments:
[1] = biological target: T1, Recombinant human FAP (fibroblast …); assay: SPR (ProteOn), human FAP immobilized on GLC chip
Description: Briefly, human FAP was diluted in 10 mM Na-acetate pH 5.3 buffer and covalently immobilized on a GLC chip (BioRad) to a level of around 2000 resonance units (RU). The interaction of ankyrin repeat protein and hFAP was then measured by injecting 200 μl running buffer (PBS, pH 7.4 containing 0.005% Tween 20®) containing serial dilutions of ankyrin repeat proteins covering a concentration range between 30 nM and 0.5 nM (on-rate measurement), followed by a running buffer flow for at least 25 minutes at a constant flow rate of 100 μl/min (off-rate measurement). The regeneration was performed using 15 μl of 10 mM Glycine pH 2 followed by 15 μl of 124 mM H₃PO₄. The signals (i.e. resonance unit (RU) values) of the interspots and a reference injection (i.e. injection of running buffer only) were subtracted from the RU traces obtained after injection of ankyrin repeat protein (double-referencing). Based on the SPR traces obtained from the on-rate and off-rate measurements, the on- and off-rate of the corresponding ankyrin repeat protein—FAP interaction was determined.
Dissociation constants (KD) were calculated from the estimated on- and off-rates using standard procedures known to the person skilled in the art. […] Table 1 provides the KD values of some selected ankyrin repeat proteins as examples.

[2] = biological target: T3, Cynomolgus FAP expressed on CHO cells (cynomolgus monkey (Macaca fascicularis)); assay: FACS on cFAP-expressing CHO cells
T3 construct: whole, on cells; also called cFAP-expressing CHO cells; cynomolgus FAP+ CHO cells
Description: (§1) Using multi-well plates, 20,000 WI38 cells were added per well in 50 μl of PBS. 50 μl of appropriate dilutions (2× dilution steps) of ankyrin repeat protein was then added to the cells and incubated for 30 minutes on ice. After the ankyrin repeat protein-binding reaction, cells were washed twice with PBS. Direct immunofluorescent detection of the His-tagged ankyrin repeat proteins using Penta-His AF647 conjugate (QIAgen) and determination of live cells using LIVE/DEAD™ Fixable Green Dead Cell Stain Kit (ThermoFisher) were then performed together in one step. The Penta-His AF647 conjugate and the LIVE/DEAD™ Fixable Green dye were applied to the cells together in 1/200 (Penta-His) and 1/1000 (LID Fixable) final dilutions and incubated for 20-30 minutes on ice. After washing the cells with PBS, cells were re-suspended in 1× CellFix™ buffer (BD Biosciences) (10× stock was diluted 1/10 in water). The samples were incubated in CellFix™ buffer for 15-20 minutes at RT, then spun down at 400 g for 5 min. Supernatant was discarded and cells were re-suspended in 200 μl PBS and stored at 4° C. until acquisition and FACS analysis. Acquisition and FACS analysis, including the determination of median fluorescence intensity (MFI), were done within 5 days after staining using an AttuneNxT instrument. Binding curves were fitted by non-linear regression curve fitting using GraphPad Prism software (v 7.0.4).
A series of dilutions of ankyrin repeat proteins were added to cFAP expressing CHO cells. The binding reaction and subsequent analysis and MFI measurements were performed essentially as described in Example 3 for the WI38 cells.

[3] = biological target: T2, Human FAP expressed on the cell surface …; assay: FACS on FAP-expressing WI38 cells, Penta-His AF647 detection
Description: as §1
EC₅₀ values were determined using standard procedures known to the person skilled in the art. […] Table 2 provides the EC₅₀ values of selected ankyrin repeat proteins as examples.

[4] = biological target: T1, Recombinant human FAP (fibroblast …); assay: cell-based or functional assay

Row | Binder | Kd [1] [nM] | EC50 [2] [nM] | EC50 [3] [nM] | FAP activity (%) [4] [%]
1 | B1 | 0.195 | 4.1 | 0.308 | 94
2 | B2 | 0.186 |  | 0.276 | 115
3 | B3 | 7.02 |  | 0.65 | 101
4 | B4 | 1.35 |  | 1.09 | 111
5 | B5 | 0.241 | 7.9 | 0.205 | 102
6 | B6 | 0.115 | 5.6 | 0.188 | 112
7 | B7 | 0.053 | 6.1 | 0.15 | 106

From patent publication US20220242973A1 (Molecular Partners, published 2022)
